The target in the experiment is human RXFP4 on stably transfected CHO-K1 cells (human) (UniProt Q8TDU9). The experiment in a line: competitive binding of a europium-labelled ligand on cells.

As usually defined, the pKi is the negative decadic logarithm of the Ki, by convention in mol/L. A low value points to a high Ki.

UniProt Q8TDU9, sequence (Q8TDU9 whole entry): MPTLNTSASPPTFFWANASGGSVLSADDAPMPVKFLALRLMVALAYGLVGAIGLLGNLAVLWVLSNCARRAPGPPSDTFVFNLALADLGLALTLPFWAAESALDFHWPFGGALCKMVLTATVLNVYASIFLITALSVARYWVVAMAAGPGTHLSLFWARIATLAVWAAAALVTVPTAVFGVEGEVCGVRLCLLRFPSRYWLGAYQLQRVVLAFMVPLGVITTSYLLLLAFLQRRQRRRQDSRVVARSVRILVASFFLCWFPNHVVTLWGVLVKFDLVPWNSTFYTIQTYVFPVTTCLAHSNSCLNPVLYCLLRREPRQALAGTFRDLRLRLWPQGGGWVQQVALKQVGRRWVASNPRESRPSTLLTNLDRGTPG

Substance “recombinant two-chain human insulin-like peptide 5 (INSL5) (ligand)” gave a negative logarithm of the Ki (pKi) of 8.19.

These data come from paper doi:10.1101/2022.07.28.501832.
